Tested on: K4 kissing-loop RNA reporter
Test: apparent KD of K4 kissing-loop reporter; higher = weaker reporter binding
Settings: Eterna round: R107
Experimental: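 RNA-MaP round R107: designed RNA switches with theophylline, tryptophan, arginine or FMN aptamers are transcribed on-chip within common flanks. They are titrated with a labelled K4 kissing-loop RNA reporter in RNA-MaP buffer (100 mM Tris pH 7.5, 80 mM KCl, 4 mM MgCl2), without ligand or with the indicated ligand. Median apparent KD per design.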

[1] = input ligand: theophylline 20 uM
[2] = input ligand: tryptophan 2.4 mM
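Note: bound reporter read as fluorescence of individual clusters on recovered sequencing chips by microscopy, with normalized cluster intensities fitted with a binding model.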

Row | Sequence | apparent KD of K4 kissing-loop reporter (input ligand: FMN 200 uM) [nM] | apparent KD of K4 kissing-loop reporter (input ligand: arginine 13.2 mM) [nM] | apparent KD of K4 kissing-loop reporter (input ligand: none) [nM] | apparent KD of K4 kissing-loop reporter [1] [nM] | apparent KD of K4 kissing-loop reporter [2] [nM]
1 | UUAGAGAUCUCAGGAUAUCAGUGAUGUUGGUUGCCAGAUCUGAGAUAGAAUUCUAUCUCAGAUCAAUGAGAAGGGAGAUCUCAUU [AK4 Exc FMN B] | 501 | 313 | 352 | 317 | 282
2 | UGAGGAGAGGGAAGGAGCGUGAAAGAGAAAGAAUAUAGUGAUGUUAUAUAGAAGAAAGAAUCACAGGUAGGUCGCCCGGAGGAGG [SSArgB.B] | 278 | 742 | 479 | 669 | 284
3 | GCUAUGGUAGGAAGGAGCGCUGCCUUGUUUUUACGAGUGAUGUUCGGAAGCAGGGUGUUAAAGCAGGUAGGUCGCCUACUAUAGC [Arginine B K4 23] | 191 | 121 | 160 | 172 | 155
4 | UUAGAUCAAAGAUCAGUCUUAUGGAGGGAACGAGGACCGGUACGGCCGCCACUCGAGUGAUGUUCGAGAACCCUCGUGACAAAUU [AK4 EXC Tryptophan A] | 196 | 146 | 189 | 164 | 297
5 | AAAUAAGCUCAUGAUACCAGCCAGUGAUGUUGGUUGGUCCACCGUGUCCGAACAUUAAGCGGCCCUUGGCAGCAUGAUGCGCGUA [Xearxea] | 125 | 98.5 | 90.1 | 119 | 118
6 | GGUAGCAUGGCGGCCGCCACUGUCUACUGAGGCGGAGUGAUGUUCCGGUUUAAAUAACAAGUUCACAGGACCGGGCCAUGCUACC | 382 | 400 | 462 | 471 | 141
7 | CGCGAGUCCUUUCAGUGAGUGAUGUUUACGCGAGGACCGGUACGGCCGCCACUCGAUGGUAUACCAAGACAUCAGCAGAUUGUCU [theeternabot_exclusion_KL_Trp_A_18] | 304 | 304 | 321 | 387 | 342
8 | GAUGGGUAUCAAGGAUAUGCCACUAUUGACUCCUAGAUGGUCAACCAUAUAAUGCGAGUGAUGUUCGCAGAAGGUGAUUCUUAGC [theeternabot_exclusion_KL_FMN_B_24] | 92.3 | 92.3 | 89.5 | 89.7 | 73.2
9 | UGGACAUGACUCGAUAAGAGUCAAUGAGAUACCAGUGACGAAAGUCACCCUUGGCAGCUCAACUGCCAGUGAUGUUGGUAGUCCU [#SwitchBubble #StaticStem] | 739 | 424 | 742 | 793 | 566
10 | UGAUACCAGACGGCCGCCACUAGGGCUAGCAAAGCUAGCAAGUGAUGUUUGAGGAGUGAUGUUCCUAGGACCGGGUCUGGUAUCU [TrypBX 1 #Palindromic #SwitchBubble #StaticStem] | 60.5 | 36.3 | 52.2 | 46.5 | 25.9
11 | ACUGGAAUUGUACUCCAGUGAUGUUGGAGGCAGGAUAUCCAGUAAAGGAGAAGGGCCAUCGCGCUAUUUAGCCGCAGGCGGCUAA [Atrilazaed] | 251 | 130 | 126 | 136 | 131
12 | AAUAUAGUGAUGUUAUAUAAGAAGGAGUUACGAGGACCGGUACGGCCGCCACUCGAAACGAGUGAAGAAGGAGGAAGGAGGAGGA [SSTRyptA.A] | 479 | 300 | 453 | 409 | 366
13 | GCCGUACGCAUGGAUACCAGAGAUGUUAAUCUCGAUGCCAGUGAUGUUGGCUUUAGCUAUCUCCCUUGGCAGCCAUGCGUACGGC | 1050 | 608 | 909 | 566 | 1000
14 | UGAUAGGACAGAAGGAGCGGUAGUGAUGUUACCAAAAGGGUAAGGUGUCAAAAGACACCCUACCAGGUAGGUCGCUGUCCUAUCU | 110 | 96 | 104 | 84.3 | 82.8
15 | UAGGCGGGAGAAGGAUAUCUGUGAAACCUGCUGCCCAAUAAGUGAUGUUUAUAAAGGAAGCGUCAUAGAGAAGGUCUAACAAGUA [theeternabot_sameState_KL_FMN_B_1] | 512 | 582 | 714 | 642 | 814
16 | GAUAAAUUGAUGCGUAGUGAUGCACGGGAAGGAGCGCGUUUUUUCGCAGGUAGGUCGCCCGACUGCGCGUUUCGAGUGAUGUUCG [5.)] | 192 | 198 | 193 | 197 | 172

— the supplement of paper PMC9170038
